Source: IntAct's records for PubMed 24591568

B1: Rab11 family-interacting protein 5 (Homo sapiens), Q9BXF6 (parent)
chain: MALVRGAEPAAGPSRWLPTHVQVTVLRARGLRGKSSGAGSTSDAYTVIQVGREKYSTSVVEKTHGCPEWREECSFELPPGALDGLLRAQEADAGPAPWAASSAAACELVLTTMHRSLIGVDKFLGQATVALDEVFGAGRAQHTQWYKLHSKPGKKEKERGEIEVTIQFTRNNLSASMFDLSMKDKPRSPFSKIRDKMKGKKKYDLESASAILPSSAIEDPDLGSLGKMGKAKGFFLRNKLRKSSLTQSNTSLGSDSTLSSASGSLAYQGPGAELLTRSPSRSSWLSTEGGRDSAQSPKLFTHKRTYSDEANQMRVAPPRALLDLQGHLDAASRSSLCVNGSHIYNEEPQGPVRHRSSISGSLPSSGSLQAVSSRFSEEGPRSTDDTWPRGSRSNSSSEAVLGQEELSAQAKVLAPGASHPGEEEGARLPEGKPVQVATPIVASSEAVAEKEGARKEERKPRMGLFHHHHQGLSRSELGRRSSLGEKGGPILGASPHHSSSGEEKAKSSWFGLREAKDPTQKPSPHPVKPLSAAPVEGSPDRKQSRSSLSIALSSGLEKLKTVTSGSIQPVTQAPQAGQMVDTKRLKDSAVLDQSAKYYHLTHDELISLLLQRERELSQRDEHVQELESYIDRLLVRIMETSPTLLQIPPGPPK
partner: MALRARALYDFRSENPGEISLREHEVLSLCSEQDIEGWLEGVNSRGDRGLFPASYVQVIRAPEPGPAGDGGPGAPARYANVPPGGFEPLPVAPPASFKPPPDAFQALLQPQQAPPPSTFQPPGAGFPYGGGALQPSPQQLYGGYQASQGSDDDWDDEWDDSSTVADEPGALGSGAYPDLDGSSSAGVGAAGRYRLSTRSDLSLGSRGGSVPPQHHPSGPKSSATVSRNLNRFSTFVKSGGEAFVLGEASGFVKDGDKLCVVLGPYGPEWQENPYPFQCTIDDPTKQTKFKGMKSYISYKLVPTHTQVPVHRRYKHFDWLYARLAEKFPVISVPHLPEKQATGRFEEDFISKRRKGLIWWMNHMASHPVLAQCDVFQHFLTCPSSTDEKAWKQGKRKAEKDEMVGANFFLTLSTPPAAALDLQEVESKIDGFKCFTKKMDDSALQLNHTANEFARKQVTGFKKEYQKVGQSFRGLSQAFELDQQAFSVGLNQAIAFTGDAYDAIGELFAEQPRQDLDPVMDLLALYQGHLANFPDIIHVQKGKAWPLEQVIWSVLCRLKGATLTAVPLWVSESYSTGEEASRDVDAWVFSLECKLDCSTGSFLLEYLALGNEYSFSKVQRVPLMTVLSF
B2: Rab11 family-interacting protein 5 (Homo sapiens), Q9BXF6 (parent)
chain: B1 chain

Variants of: B1
Settings: with snx18_human SNX18, Q96RF0

effect of a mutation on the interaction	Variant
increasing interaction	T276A

Variants of: B1
Settings: with snx18_human SNX18, Q96RF0
Remark: another data set of the same source

effect of a mutation on the interaction	Variant
decreasing interaction	T276D

Variants of: B2
Settings: with kif3a_human KIF3A

effect of a mutation on the interaction	Variant
increasing interaction	T276A

Variants of: B2
Settings: with kif3a_human KIF3A
Remark: another data set of the same source

effect of a mutation on the interaction	Variant
increasing interaction	T276D
